Measurements as given in US20230055711A1 (BIOSION, published 2023).

The binders below were run against recombinant human BCMA-his protein (Acro biosystems, Cat #BCA-H522Y) (human) (UniProt Q02223) (assay: BLI Octet RED96, antibody on AHC sensor, BCMA-his in solution).
Sequence of recombinant human BCMA-his protein (Acro biosystems, Cat #BCA-H522Y) (human) (Q02223 1-54, stated change not applied): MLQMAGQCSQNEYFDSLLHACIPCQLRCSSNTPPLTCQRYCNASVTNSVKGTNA

| Binder | Kd [nM] | koff [s⁻¹] | kon [M⁻¹ s⁻¹] |
| --- | --- | --- | --- |
| huB1H2-V20 (antibody, human IgG1, kappa, V domains shown) VH: QVQLVQSGAEVKKPGASVKVSCKASGYTLTNYVMHWVRQAPGQGLEWIGFIIPFNDGTKYNEHFKGRVTITRDTSISTAYMQLSSLRSEDTAVYYCARYDFEGYFDVWGQGTLVTVSS VL: DIQMTQSPSSLSASVGDRVTITCSASQDITNFLNWYQQKPGKAPKLLIYSTSRLHSGVPSRFSGSGSGTDYTLTISSLQPEDIATYYCQQYSNLPWTFGQGTKVEIKR | 6 | 0.00141 | 234000 |
| huB1H2-V14 (antibody, human IgG1, kappa, V domains shown) VH: QVQLVQSGAEVKKPGASVKVSCKASGYTLTNYVMHWVRQAPGQGLEWIGFIIPFNDGTKYNEHFKGRVTITRDTSISTAYMQLSSLRSEDTAVYYCARYDFEGYFDVWGQGTLVTVSS VL: DIQMTQSPSSLSASVGDRVTITCSASQDITNFLNWYQQKPGKAVKLLIYSTSRLHSGVPSRFSGSGSGTDFTLTISSLQPEDIATYYCQQYSNLPWTFGQGTKVEIKR | 5.14 | 0.00137 | 266000 |
| huB1H2-V15 (antibody, human IgG1, kappa, V domains shown) VH: QVQLVQSGAEVKKPGASVKVSCKASGYTLTNYVMHWMRQAPGQGLEWIGFIIPFNDGTKYNEHFKGRVTITRDTSISTAYMQLSSLRSEDTAVYYCARYDFEGYFDVWGQGTLVTVSS VL: DIQMTQSPSSLSASVGDRVTITCSASQDITNFLNWYQQKPGKAVKLLIYSTSRLHSGVPSRFSGSGSGTDFTLTISSLQPEDIATYYCQQYSNLPWTFGQGTKVEIKR | 6.06 | 0.00137 | 226000 |
| huB1H2-V23 (antibody, human IgG1, kappa, V domains shown) VH: QVQLVQSGAEVKKPGASVKVSCKASGYTLTNYVMHWVRQAPGQGLEWIGFIIPFNDGTKYNEHFKGRVTITRDKSISTAYMQLSSLRSEDTAVYYCARYDFEGYFDVWGQGTLVTVSS VL: DIQMTQSPSSLSASVGDRVTITCSASQDITNFLNWYQQKPGKAPKLLIYSTSRLHSGVPSRFSGSGSGTDYTLTISSLQPEDIATYYCQQYSNLPWTFGQGTKVEIKR | 20.4 | 0.00214 | 105000 |
| huB1H2-V24 (antibody, human IgG1, kappa, V domains shown) VH: QVQLVQSGAEVKKPGASVKVSCKASGYTLTNYVMHWVRQAPGQGLEWIGFIIPFNDGTKYNEHFKGRVTITSDKSISTAYMQLSSLRSEDTAVYYCARYDFEGYFDVWGQGTLVTVSS VL: DIQMTQSPSSLSASVGDRVTITCSASQDITNFLNWYQQKPGKAPKLLIYSTSRLHSGVPSRFSGSGSGTDYTLTISSLQPEDIATYYCQQYSNLPWTFGQGTKVEIKR | 6.1 | 0.001 | 164000 |
| huB1H2-V17 (antibody, human IgG1, kappa, V domains shown) VH: QVQLVQSGAEVKKPGASVKVSCKASGYTLTNYVMHWVRQAPGQGLEWIGFIIPFNDGTKYNEHFKGRVTITRDKSISTAYMQLSSLRSEDTAVYYCARYDFEGYFDVWGQGTLVTVSS VL: DIQMTQSPSSLSASVGDRVTITCSASQDITNFLNWYQQKPGKAVKLLIYSTSRLHSGVPSRFSGSGSGTDFTLTISSLQPEDIATYYCQQYSNLPWTFGQGTKVEIKR | 9.16 | 0.00238 | 260000 |
| huB1H2-V22 (antibody, human IgG1, kappa, V domains shown) VH: QVQLVQSGAEVKKPGASVKVSCKASGYTLTNYVMHWVRQAPGQGLEWIGFIIPFNDGTKYNEHFKGRVTITSDTSISTAYMQLSSLRSEDTAVYYCARYDFEGYFDVWGQGTLVTVSS VL: DIQMTQSPSSLSASVGDRVTITCSASQDITNFLNWYQQKPGKAPKLLIYSTSRLHSGVPSRFSGSGSGTDYTLTISSLQPEDIATYYCQQYSNLPWTFGQGTKVEIKR | 3.77 | 0.000862 | 229000 |
| huB1H2-V21 (antibody, human IgG1, kappa, V domains shown) VH: QVQLVQSGAEVKKPGASVKVSCKASGYTLTNYVMHWMRQAPGQGLEWIGFIIPFNDGTKYNEHFKGRVTITRDTSISTAYMQLSSLRSEDTAVYYCARYDFEGYFDVWGQGTLVTVSS VL: DIQMTQSPSSLSASVGDRVTITCSASQDITNFLNWYQQKPGKAPKLLIYSTSRLHSGVPSRFSGSGSGTDYTLTISSLQPEDIATYYCQQYSNLPWTFGQGTKVEIKR | 7.12 | 0.00142 | 199000 |

Binders with a lower Kd, results first:

| Kd [nM] | koff [s⁻¹] | kon [M⁻¹ s⁻¹] | Binder |
| --- | --- | --- | --- |
| 3.5 | 0.000887 | 254000 | huB1H2-V16 (antibody, human IgG1, kappa, V domains shown) VH: QVQLVQSGAEVKKPGASVKVSCKASGYTLTNYVMHWVRQAPGQGLEWIGFIIPFNDGTKYNEHFKGRVTITSDTSISTAYMQLSSLRSEDTAVYYCARYDFEGYFDVWGQGTLVTVSS VL: DIQMTQSPSSLSASVGDRVTITCSASQDITNFLNWYQQKPGKAVKLLIYSTSRLHSGVPSRFSGSGSGTDFTLTISSLQPEDIATYYCQQYSNLPWTFGQGTKVEIKR |
| 2.65 | 0.000647 | 244000 | huB1H2-V19 (antibody, human IgG1, kappa, V domains shown) VH: EVQLVQSGAEVKKPGSSVKVSCKASGYTLTNYVMHWMRQAPGQGLEWIGFIIPFNDGTKYNEHFKGRATLTSDKSTNTAYMELSSLRSEDTAVYYCARYDFEGYFDVWGAGTLVTVSS VL: DIQMTQSPSSLSASVGDRVTITCSASQDITNFLNWYQQKPGKAPKLLIYSTSRLHSGVPSRFSGSGSGTDYTLTISSLQPEDIATYYCQQYSNLPWTFGQGTKVEIKR |
| 2.22 | 0.000921 | 415000 | huB1H2-V18 (antibody, human IgG1, kappa, V domains shown) VH: QVQLVQSGAEVKKPGASVKVSCKASGYTLTNYVMHWVRQAPGQGLEWIGFIIPFNDGTKYNEHFKGRVTITSDKSISTAYMQLSSLRSEDTAVYYCARYDFEGYFDVWGQGTLVTVSS VL: DIQMTQSPSSLSASVGDRVTITCSASQDITNFLNWYQQKPGKAVKLLIYSTSRLHSGVPSRFSGSGSGTDFTLTISSLQPEDIATYYCQQYSNLPWTFGQGTKVEIKR |
| 2.21 | 0.000688 | 312000 | huB1H2-V13 (antibody, human IgG1, kappa, V domains shown) VH: EVQLVQSGAEVKKPGSSVKVSCKASGYTLTNYVMHWMRQAPGQGLEWIGFIIPFNDGTKYNEHFKGRATLTSDKSTNTAYMELSSLRSEDTAVYYCARYDFEGYFDVWGAGTLVTVSS VL: DIQMTQSPSSLSASVGDRVTITCSASQDITNFLNWYQQKPGKAVKLLIYSTSRLHSGVPSRFSGSGSGTDFTLTISSLQPEDIATYYCQQYSNLPWTFGQGTKVEIKR |
| 1.29 | 0.000742 | 573000 | huB1H2-V2 (antibody, human IgG1, kappa, V domains shown) VH: QVQLVQSGAEVKKPGASVKVSCKASGYTLTNYVMHWVRQAPGQGLEWIGFIIPFNDGTKYNEHFKGRVTITRDTSISTAYMQLSSLRSEDTAVYYCARYDFEGYFDVWGQGTLVTVSS VL: DIQMTQSPSSLSASVGDRVTITCSASQDITNFLNWYQQKPGKTVKLLIYSTSRLHSGVPSRFSGSGSGTDYTFTISSLQPEDIATYYCQQYSNLPWTFGQGTKVEIKR |
| 1.22 | 0.000498 | 407000 | huB1H2-V1 (antibody, human IgG1, kappa, V domains shown) VH: EVQLVQSGAEVKKPGSSVKVSCKASGYTLTNYVMHWMRQAPGQGLEWIGFIIPFNDGTKYNEHFKGRATLTSDKSTNTAYMELSSLRSEDTAVYYCARYDFEGYFDVWGAGTLVTVSS VL: DIQMTQSPSSLSASVGDRVTITCSASQDITNFLNWYQQKPGKTVKLLIYSTSRLHSGVPSRFSGSGSGTDYTFTISSLQPEDIATYYCQQYSNLPWTFGQGTKVEIKR |
| 1.12 | 0.00044 | 392000 | huB1H2-V6 (antibody, human IgG1, kappa, V domains shown) VH: QVQLVQSGAEVKKPGASVKVSCKASGYTLTNYVMHWVRQAPGQGLEWIGFIIPFNDGTKYNEHFKGRVTITSDKSISTAYMQLSSLRSEDTAVYYCARYDFEGYFDVWGQGTLVTVSS VL: DIQMTQSPSSLSASVGDRVTITCSASQDITNFLNWYQQKPGKTVKLLIYSTSRLHSGVPSRFSGSGSGTDYTFTISSLQPEDIATYYCQQYSNLPWTFGQGTKVEIKR |
| 0.915 | 0.000372 | 407000 | huB1H2-V5 (antibody, human IgG1, kappa, V domains shown) VH: QVQLVQSGAEVKKPGASVKVSCKASGYTLTNYVMHWVRQAPGQGLEWIGFIIPFNDGTKYNEHFKGRVTITRDKSISTAYMQLSSLRSEDTAVYYCARYDFEGYFDVWGQGTLVTVSS VL: DIQMTQSPSSLSASVGDRVTITCSASQDITNFLNWYQQKPGKTVKLLIYSTSRLHSGVPSRFSGSGSGTDYTFTISSLQPEDIATYYCQQYSNLPWTFGQGTKVEIKR |
| 0.731 | 0.000402 | 550000 | huB1H2-V3 (antibody, human IgG1, kappa, V domains shown) VH: QVQLVQSGAEVKKPGASVKVSCKASGYTLTNYVMHWMRQAPGQGLEWIGFIIPFNDGTKYNEHFKGRVTITRDTSISTAYMQLSSLRSEDTAVYYCARYDFEGYFDVWGQGTLVTVSS VL: DIQMTQSPSSLSASVGDRVTITCSASQDITNFLNWYQQKPGKTVKLLIYSTSRLHSGVPSRFSGSGSGTDYTFTISSLQPEDIATYYCQQYSNLPWTFGQGTKVEIKR |
| 0.269 | 0.00029 | 1.08e+06 | huB1H2-V4 (antibody, human IgG1, kappa, V domains shown) VH: QVQLVQSGAEVKKPGASVKVSCKASGYTLTNYVMHWVRQAPGQGLEWIGFIIPFNDGTKYNEHFKGRVTITSDTSISTAYMQLSSLRSEDTAVYYCARYDFEGYFDVWGQGTLVTVSS VL: DIQMTQSPSSLSASVGDRVTITCSASQDITNFLNWYQQKPGKTVKLLIYSTSRLHSGVPSRFSGSGSGTDYTFTISSLQPEDIATYYCQQYSNLPWTFGQGTKVEIKR |
